In US10975365B2, “Di-enzymatic chimeric endolysin” (Government of the United States of America, as represented …, priority 2018, dated 2021):

What was measured:
[1] = tested on: eight serotypes of pneumococci; assay: MIC test on pneumococcal strains; type: cell-based, Streptococcus pneumoniae
Method: The MICs of enzymes and antibiotics were determined in a 96-well titration plate in triplicate. Briefly, the overnight pneumococcal culture was diluted with 2×THY to obtain a final concentration of 1×10^7 CFU/ml, and other bacterial species were diluted with 2-folded medium to 1×10^5 CFU/ml. 100 μl of the diluted bacterial culture was subjected into each well, mixing with the serial 2-fold diluted 100 μl of enzymes/antibiotics. PBS buffer was used as a negative control. The plates were sealed via parafilm and statically incubated at 37° C. incubator for 24 h. The MIC was defined as the lowest concentration of treatment that inhibited visible growth of the bacterium.
To further evaluate the activity of ClyX-1, MIC tests were performed against eight serotypes of pneumococci including penicillin-resistant strains and capsule-free mutant with information shown in FIG. 13. Penicillin and levofloxacin were tested as standards to benchmark the antimicrobial activity. All of the strains were sensitive to levofloxacin (MIC<=2). Only the two penicillin-resistant strains indicated MIC larger than 2 μg/ml (resistance). […] The MICs of ClyX-1 were lower than that of Cpl-1 and even levofloxacin, ranging from 0.13 μg/ml to 0.5 μg/ml.

[2] = tested on: S. pneumoniae ATCC TIGR 4; assay: Bacteriolytic (turbidity reduction) assay; type: cell-based, Streptococcus pneumoniae; conditions: 5 μg/ml; OD from 1.0 to 0.2 within the first 2 min; overnight culture
Method: In a bacteriolytic assay, bacterial culture (stationary phase) was harvested at 5,000 for 10 min at 4° C., washed twice and resuspended in PBS buffer, pH7.4. In a 96-well titration plate, the resuspended bacterial solution was mixed 1:1 (u/u) with endolysin to a final OD600 between 0.8 to 1.0. In each run, PBS was included as a negative control. Spectrophotometric readings (OD600) were taken every 15 s over 10 min on a spectrophotometer. Vmax was calculated as the slope of the linear portion and represented the endolysins activity. All experiments were conducted in triplicate to get the standard deviation.
Bacteriolytic capacity of ClyX-1 and ClyX-1 linkers were analyzed via the turbidity reduction assay against the overnight culture of S. pneumoniae ATCC TIGR 4. Both enzymes-induced lysis of the bacterial peptidoglycan caused a decrease in OD from 1.0 to 0.2 (80%) within the first 2 min of the turbidity assay at 5 μg/ml as shown in FIG. 9a. The linkers were the only difference between these two enzymes, and the unstructured region of PlyCA GyH, PlyCA CHAP, and Cpl-1 CBD provide optimal flexibility for enzymatical activity. High lytic activity correlated with data for bacterial survival after chimera treatment. ClyX-1 sterilized cultures for 5 min, causing a decrease in TIGR 4 viability of ˜6 log, at as low as 0.5 μg/ml (FIG. 9b). […]

[3] = tested on: five strains of stationary phase S. pneumoniae; assay: Bactericidal activity of ClyX-3 on pneumococcal strains; type: cell-based, Streptococcus pneumoniae; conditions: 5 μg/ml; 5 min
Method: (a) Bactericidal effects of ClyX-3 against five strains of stationary phase S. pneumoniae. 5 μg/ml of enzymes were mixed with 10^6 bacterial cultures for 5 min. Log killing was determined through the comparisons of PBS treatment and enzymes treatment. (b) Bactericidal effects of ClyX-4 against stationary phase streptococci. 50 μg/ml of enzymes were mixed with 10^6 bacterial culture for 1 h. Log killing was determined through the comparisons of PBS treatment and enzymes treatment;
(§1) With regard to bactericidal assay, bacterial cells were diluted to 2× rich media to generate a final concentration of 5.0×10^6 CFU/ml. 100 μl of the diluted bacterial culture was added into a 96-well titration plate in triplicate and mixed with 100 μl of sterile-filtered enzymes. Plates were sealed and incubated at 37° C. for 5-60 min. After the incubation, bacterial cells were serially diluted in 10-fold increments into sterile PBS and plated on THY/TSB agar. Log killing was calculated as follows: −log[(CFU under enzyme treatment)/(CFU under PBS treatment)].
With regard to applying the design rationale to add a C′ terminal EAD such that two EADs are disposed at each side of the CBD, the process was used to engineer endolysins for increased activity. […]

S. pneumoniae D39 = assay: Bactericidal assay on D39, ClyX-1 compared with Cpl-1 and PlyCA; type: cell-based, Streptococcus pneumoniae
Method: (§2) (a) Different concentrations of ClyX-1 and Cpl-1 were mixed with 10^6 overnight S. pneumoniae D39 culture for 5 min. The cells were then serial diluted and plated on the THY plates. Log killing was determined through the comparisons of PBS treatment and the enzymes treatment. (b) Female BALB/c mice were injected intraperitoneally with pneumococcus strain S. pneumoniae NS26 at a single dose at 2.95×10^7 colony forming units (CFU) per mouse. One hour after the infection, mice were intraperitoneally received a single dose of different treatments in different amount per mouse. The lines represent the percentage survival of mice for 10 days. The data was plotted as Kaplan-Meier survival curves and analyzed via the Log-rank (Mantel-Cox) test (*P<0.001; **P<0.0001);
as §1
Bactericidal assays were repeated using the three lysins at different concentrations (0.5 μg/ml to 50 μg/ml) on a different strain, D39 (FIG. 10a).

S. pneumoniae NS26 = assay: Mouse systemic infection model, survival; type: in vivo, female BALB/c mice
Method: as §2
With regard to in vivo mouse infection models, mouse infection experiments were carried out in an ABSL-2 lab. In the mouse systemic infection model, female BALB/c mice (6-8 weeks old) were injected intraperitoneally with S. pneumoniae NS26 at a single dose of 2.95×10^7 CFU/mouse and divided randomly into multiple groups. Bacterial burden in blood and organs in mice 1 h post-infected were confirmed by plating on THY agar as described previously. One hour post-infection, these groups intraperitoneally received a single dose of 20, 40, or 80 μg/mouse of […] (n=10); 20, 40, or 80 μg/mouse of Cpl-1 (n=10); 100 μg/mouse of penicillin G (n=10); or an equal volume of PBS buffer (n=10). The survival data for all groups were recorded for 10 days.
To validate the in vitro bactericidal activity of ClyX-1, we applied a mouse systemic infection model to test the in vivo efficacy of the enzyme. Mice were challenged to a 2-days lethal-dose of 2.95×10^7 CFU. One hour after infection, the mice were intraperitoneally injected a single dose containing different amount of either ClyX-1 or Cpl-1 ranging from 20 μg-80 μg. The antibiotics control was 100 μg/mouse of penicillin G, and the negative control was as PBS, pH7.4 buffer. The mice were then observed and recorded for the survival data. All the mice treated with PBS buffer died within the first 2 days.

Molecule: Penicillin
- MIC ([1]; the two penicillin-resistant strains): > 2 µg/mL

Molecule: C[C@H]1COc2c(N3CCN(C)CC3)c(F)cc3c(=O)c(C(=O)O)cn1c23 [levofloxacin]
- MIC ([1]; all strains, 24 h, unit not given): <= 2

B1: ClyX-1 linkers: similar to ClyX-1 but with two extra native linkers in the PlyCA; Seq. ID No. 18 (protein)
chain: MSKKYTQQQYEKYLAQPANNTFGLSPQQVADWFMGQAGARPVINSYGVNASNLVSTYIPKMQEYGVSYTLFLMYTVFEGGGAGNWINHYMYDTGSNGLECLEHDLQYIHGVWETYFPPALSAPECYPATEDNAGALDRFYQSLPGRTWGDVMIPSTMAGNAWVWAYNYCVNNQGAAPLVYFGNPYDSQIDSLLAMGADPFTGGSITGDGKNPSVGTGNATVSASSECTMEEDDKPKTAGTWKQDSKGWWFRRNNGSFPYNKWEKIGGVWYYFDSKGYCLTSEWLKDNEKWYYLKDNGAMATGWVLVGSEWYYMDDSGAMVTGWVKYKNNWYYMTNERGNMVSNEFIKSGKGWYFMNTNGELADNPSFTKEPDGLITVALQQTNPNPDKPTVKSPGQNDLGSGSDRVAANLANAQAQVGKYIGDGQCYAWVGWWSARVCGYSISYSTGDPMLPLIGDGMNAHSIHLGWDWSIANTGIVNYPVGTVGRKEDLRVGAIWCATAFSGAPFYTGQYGHTGIIESWSDTTVTVLEQNILGSPVIRSTYDLNTFLSTLTGLITFK
modifications: Bacteriophage
notes: similar to ClyX-1 but with two extra native linkers in the PlyCA; ID No. 18
- decrease in OD in turbidity assay [2]: 80%

B2: ClyX-3: the full-length Cpl-1 with an additional C′ terminal PlyC CHAP; Seq. ID No. 21 (protein)
chain: MVKKNDLFVDVSSHNGYDITGILEQMGTTNTIIKISESTTYLNPCLSAQVEQSNPIGFYHFARFGGDVAEAEREAQFFLDNVPMQVKYLVLDYEDDPSGDAQANTNACLRFMQMIADAGYKPIYYSYKPFTHDNVDYQQILAQFPNSLWIAGYGLNDGTANFEYFPSMDGIRWWQYSSNPFDKNIVLLDDEEDDKPKTAGTWKQDSKGWWFRRNNGSFPYNKWEKIGGVWYYFDSKGYCLTSEWLKDNEKWYYLKDNGAMATGWVLVGSEWYYMDDSGAMVTGWVKYKNNWYYMTNERGNMVSNEFIKSGKGWYFMNTNGELADNPSFTKEPDGLITVAGSDRVAANLANAQAQVGKYIGDGQCYAWVGWWSARVCGYSISYSTGDPMLPLIGDGMNAHSIHLGWDWSIANTGIVNYPVGTVGRKEDLRVGAIWCATAFSGAPFYTGQYGHTGIIESWSDTTVTVLEQNILGSPVIRSTYDLNTFLSTLTGLITFK
modifications: Bacteriophage
notes: the full-length Cpl-1 with an additional C′ terminal PlyC CHAP; ID No. 21
- activity by MIC compared with parental endolysin and ClyX-1 [1]: better than parental endolysins
- log reduction of tested pneumococcal strains [3]: ~4 logs

B3: Cpl-1: parental endolysin derived from the streptococcal Cp-1 phage (protein, UniProt P15057 1-339, looked up)
Lysozyme: MVKKNDLFVDVSSHNGYDITGILEQMGTTNTIIKISESTTYLNPCLSAQVEQSNPIGFYHFARFGGDVAEAEREAQFFLDNVPMQVKYLVLDYEDDPSGDAQANTNACLRFMQMIADAGYKPIYYSYKPFTHDNVDYQQILAQFPNSLWIAGYGLNDGTANFEYFPSMDGIRWWQYSSNPFDKNIVLLDDEEDDKPKTAGTWKQDSKGWWFRRNNGSFPYNKWEKIGGVWYYFDSKGYCLTSEWLKDNEKWYYLKDNGAMATGWVLVGSEWYYMDDSGAMVTGWVKYKNNWYYMTNERGNMVSNEFIKSGKGWYFMNTNGELADNPSFTKEPDGLITVA
- log reduction (S. pneumoniae D39; 0.5 μg/ml, 5 min): < 1 log
- concentration at which the bacteria culture was sterilized (S. pneumoniae D39; within 5 min, tested 0.5 to 50 μg/ml): 50 µg/mL
- time within which the mice had died (S. pneumoniae NS26; 20 μg single i.p. dose 1 h after infection): ≤ 5 days
- mice rescued (survival) (S. pneumoniae NS26; 80 μg single i.p. dose 1 h after infection, 10 days): 20%
- log reduction of tested pneumococcal strains [3]: ~2 logs
